Experimental data reported in patent US20030124598A1.

Target: GAL4-PGC-1β (yeast; mouse) (UniProt P04386)
Experiment: cell-based or functional assay

- transcriptional activity of PGC-1β in a cotransfection assay (luciferase, BOSC cells, FIG. 9A): 3 fold
Substance: Flag-tagged HCF
